Assay results published in the supplement of paper PMC12455559.
± gives the standard deviation of the averaged measurements.

How the values were obtained:
[1] = melting temperature (DSF); higher = more thermostable
Method in brief: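 Values are melting temperatures from differential scanning fluorimetry. Candidate enzymes were expressed in E. coli C41(DE3), purified on nickel beads and freed by SUMO protease cleavage. In sealed PCR plates on a Bio-Rad CFX96, 45 μL enzyme (0 to 0.3 mg/mL) was combined with 5 μL 5X Sypro Orange. Fluorescence was recorded from 25 °C for 250 cycles, rising 0.3 °C per cycle at a ramp of 0.3 °C/s.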

[2] = purified protein yield per well (BCA); higher = higher soluble expression
Method in brief: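 The measured quantity is purified protein yield per well, determined with the Pierce Rapid Gold BCA kit. Anything below 25 ug (0.1 mg/mL) lies under the detection threshold. Enzymes were expressed in E. coli C41(DE3) in 2 mL autoinduction cultures with 100 µg/mL kanamycin at 37 °C for 2 h, then 18 °C for 40 h, and purified on an OT-2 robot using Ni-charged magnetic beads and SUMO protease release.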

[3] = PET hydrolysis, aromatic products released after 48 h (umol product/mg enzyme); higher = more PET depolymerization activity
Method in brief: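 Tagless, SUMO-cleaved candidate enzymes were purified on nickel beads, and 5 μg (50 μL) was added to 3.5 mg amorphous PET film or crystalline PET powder in 450 μL buffer. Buffers were 50 mM NaCitrate (pH 4.5, 5.5), 50 mM NaPhosphate (pH 6.5, 7.5) or glycine (pH 8.5). Sealed plates were incubated 48 h at 40 or 60 °C without shaking. PET hydrolysis activity is the aromatic product in the supernatant, read by absorbance at 260 and 280 nm against buffer blanks and expressed per mg enzyme.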

[4] = substrate: cryPow, 40 °C, pH 4.5
[5] = substrate: cryPow, 40 °C, pH 5.5
[6] = substrate: cryPow, 40 °C, pH 6.5
[7] = substrate: cryPow, 40 °C, pH 7.5
[8] = substrate: cryPow, 60 °C, pH 4.5
[9] = substrate: cryPow, 60 °C, pH 5.5
[10] = substrate: cryPow, 60 °C, pH 6.5
[11] = substrate: cryPow, 60 °C, pH 7.5
[12] = substrate: aFilm, 40 °C, pH 4.5
[13] = substrate: aFilm, 40 °C, pH 5.5
[14] = substrate: aFilm, 40 °C, pH 6.5
[15] = substrate: aFilm, 40 °C, pH 7.5
[16] = substrate: aFilm, 60 °C, pH 4.5
[17] = substrate: aFilm, 60 °C, pH 5.5
[18] = substrate: aFilm, 60 °C, pH 6.5
[19] = substrate: aFilm, 60 °C, pH 7.5
[20] = substrate: aFilm, 40 °C, pH 8.5
[21] = substrate: aFilm, 60 °C, pH 8.5
[22] = substrate: cryPow, 40 °C, pH 8.5
[23] = substrate: cryPow, 60 °C, pH 8.5

Row | Sequence | melting temperature [1] | purified protein yield per well [2] | PET hydrolysis [3, 4] | PET hydrolysis [3, 5] | PET hydrolysis [3, 6] | PET hydrolysis [3, 7] | PET hydrolysis [3, 8] | PET hydrolysis [3, 9] | PET hydrolysis [3, 10] | PET hydrolysis [3, 11] | PET hydrolysis [3, 12] | PET hydrolysis [3, 13] | PET hydrolysis [3, 14] | PET hydrolysis [3, 15] | PET hydrolysis [3, 16] | PET hydrolysis [3, 17] | PET hydrolysis [3, 18] | PET hydrolysis [3, 19] | PET hydrolysis [3, 20] | PET hydrolysis [3, 21] | PET hydrolysis [3, 22] | PET hydrolysis [3, 23]
1 | TDNPHQRGPNPSQASISANRGTFATAETSVGSGNGFGAAKIYYPTDTGQGTFGAIAVSPGYTATWAAEGAWMGHWLASFGFVVIGIDTINRNDFDVARGTQLLAALDYLTQRSSVRTRVDPSRLAVMGHSMGGGGTISAALRRPTLKAAIGLAPYSPSQTTTGMQVPTVLLAGQNDGTSTPASIITLHNNIPASTEKAYLELTGAGHGFPTSNNSVVTRKVIPWMKIFIDQDTRYTQFLCPLQDWTGIRSYRNSCPLLPNDPGTTFSLAGSASGKCVDVPGRVQTNGTGLIIWTCNGAANQHWTRTAAGELRIYGNSKCMDASGQGARVTINSCNGGSGQKWTVGTNGTVTNAASAGCLDTGGTADNAPVIVTTCNGGSGQIWIKRS [ESM184] | 43 C | 34 µg | < 3 | < 3 | < 3 | < 3 | – | – | – | – | – | – | – | – | – | – | – | – | – | – | – | –
2 | DEIGQAPTAGNITGNGSFTTTSESISSLVSGFGGGRVYYPTTAGKYPVVAISPGFTATWSSLSWIGPRLSSWGFVVVGIETNSIYDQPASRGSQLLAALNWAVNSSSSAVRARVDGSRRGVAGHSMGGGGTLEALAADTTGLVKAGVPIAPWNSDKTWNNVSEPVMIVGGQSDTVAPVASHSIPFYNTLAGPKGYVELTGASHFFPQSTNATLSRALVAWFKRWLNQDSRFTPYTCGFSGLAVSDFRSNAC [ESM090] | 68.5 C | 116 µg | < 3 | 27 | 46 | 65 | < 3 | 12 | 35 | 51 | – | – | – | – | – | – | – | – | – | – | – | –
3 | ADNPYQRGPDPTAESVRASRGTFATTQVTVPAGNGFGGGVIYHPTDTSQGTFGAVAIVPGYTATWAAEGAWMGHWLASFGFVVIGVDTINRNDWDTARGTQLLAALDYLTQQSPVRNRVDASRAAVMGHSMGGGGAMSAALRRPSLKAAVGLAPFSPSQNLTNTRVPTMLIAGQNDGTTTPASISTLYNGIPASTESAYLEFAGAGHGFPTSNNPLMMRVVIPWLKIFVDNDTRYSQFLCPLTDRTGITQYRSTCPLTPPGAPTSPPTTTAPPTPTTSPSVTPSTSPSATPTTPAPDGACRATYRTTNSWPGGYQAEVTVTAGNSPINGWTVRWTLGSGQSISQVWNGTLTTSGSAVTVRNVSYNGSLQPGTSTTFGFIGGGTPSTPVLACVSP [ESM018] | 61.3 C | 530 µg | < 3 | 3 | 11 ± 1.4 | 30 ± 1.4 | < 3 | < 3 | 7 ± 9.9 | < 3 | < 3 | < 3 | < 3 | < 3 | < 3 | < 3 | < 3 | < 3 | – | – | – | –
4 | ADNPYQRGPAPTNTSIEATRGTYAVSTKTISALSARGFGGGTIYYPTSTADGTFGVVAISPGYTASQSTIAWLGPRLASFGFVVVTIDTTTRYDQPTSRGSQLLAALDQAIGDSTVGPRIDATRQAVVGHSMGGGGTLEAAKTRRSLEAAVPLTGWNLDKTWPEVEAATLVIGAQNDTVAPTTSHSIPFYNSLSGAERKAYLELRGASHFAPVTSNTTIAKHTLSWLKRYVDDDTRYEQFISPGPSTAIGSPVSDYRVN [DP022] | 35.8 C | 215 µg | – | < 3 | < 3 | < 3 | – | < 3 | < 3 | < 3 | – | < 3 | < 3 | < 3 | – | < 3 | < 3 | < 3 | < 3 | < 3 | < 3 | < 3
5 | LFDNNGNKKQAYDATLSALNAGGTPVSPSPSVSPTAGPSPSTSPSPSPPPGDNPYQRGPDPTRDSVAANRGTFATAEMSVSPGNGFNGGSIYYPTDTSQGTFGAVAIVPGYTARFADEEAWMGHWLASFGFVVIGVETNSTNDFDTARGTQLLAALDWLTQSSPVRDRIDASRQSVIGHSMGGGGALHAAGNRSSLKAAVGLTPFMPSGTPANNQVPTLMIAGTNDTVVAPSYVTDLYNALPSSTERAYMEFVGADHLFPTRPNNLEMRILIPWLKTFVDSDSRYTQFLCPLMDSSGIAGYRNSCPLLPDQPTPPPTPTPSPTTPTPDPTTPGPGTCTATMSTGQVWGDRYNTSVTVTGTSNWTVVVAITPPQRISATWNGNPTWDSSGNVMTIRANGNGNVFGFTTMFNGNSWARPQIRSCTAG [DP081] | 57.1 C | 244 µg | – | 7.5 ± 0.71 | 21 ± 2.8 | 14.5 ± 0.71 | – | < 3 | < 3 | < 3 | – | < 3 | < 3 | < 3 | – | < 3 | < 3 | < 3 | < 3 | < 3 | 12.5 ± 2.1 | < 3
6 | CVTPAPPPAPDVATVTVGAGNGFGGGTIYYPQGATGRLPVVAASPGFTENQNAVGWYGPLLAREGNIVITIDTNSPFDSPTSRADQLLAAIDYVVNRSSVASIADGSRTAVMGHSMGGGGSLEAALKRPGLKAIIPLAPWNTTTNFSGVRVPTLIVGCQNDAIAPVGSHAEPFYQSIPATTPKAYLEIAGGDHFCTNSENPTIANYVVAWTDRFLQGDTSASSRLCPPPPAGGSISEYRANCPY [ESM050] | 82.3 C | 236 µg | 13.5 ± 0.71 | 50.5 ± 11 | 84.5 ± 6.4 | 134 ± 8.5 | 40 ± 1.4 | 106 ± 2.1 | 132 ± 11 | 140 ± 12 | < 3 | 5 | 15.5 ± 0.71 | 7.5 ± 0.71 | 5 | 22.5 ± 5 | 15 ± 1.4 | 10.5 ± 0.71 | – | – | – | –
7 | GQAPTTAAQVRASAFAKGPDPTEQTIKAQRGPFQIKQLSVAAQSGRGFNRGTIYYPTDTGQGTYGAIAVIPGFLEPEFITSWYGPTLASYGFVVMTLEPFAITDFPDPRSNQLLAAVDWLAADSPVKAQVDPNRLAVMGHSMGGGGALLAASKRPSLKAAVPLAPWNLYADFAGVTVPTLVIGADNDFIAPVGMHADPMYASIKASPNEGYLKLKNADHFTVNSYSATLTKFTVSWMKRYVDEDTRYTQFLCPAPQPDPSFASFQMTCPS [TEP173] | 41.2 C | 293 µg | < 3 | < 3 | < 3 | < 3 | < 3 | < 3 | < 3 | < 3 | < 3 | < 3 | < 3 | < 3 | < 3 | < 3 | < 3 | < 3 | – | – | – | –
8 | QYQKGPDPTTSSLERAGSFATRTISVSSLAASGFGGGRIYYPTASGSYGVIAVSPGYTGTASTMYFWGERLSSHGFVVIVIETNTLLDQPGSRANQLMAALNYTVSQGNSRTSALYGKVDGNRRGVAGHSMGGGGTLIAAADNASLKAAVPMAPWNLSSLSFRGIRVPTMIFGCQSDAIAPVNTHAVPFYNAIPSSTKKGYVEMRLDDHFCVMNGGGHYETLGKLGISWFKRFIDEDTRYSKFLCGTEYNATVRSTEVSDSKNNCPY [DP039] | 47.8 C | 57 µg | – | < 3 | 3 | 4 | – | < 3 | < 3 | < 3 | – | – | – | – | – | – | – | – | – | – | 3 | < 3
9 | ADNPYQRGPDPTRNSVAAENGPFANTSVSVPSGNGFNGGRIYYPTDTSQGTFGAIAISPGYTALFSAELAWMGPWLASHGFVVIGIETNSRNDFDTARGTQLLAALDYLTQQSTVRNRVDPNRLAVAGHSMGGGGALSAAMRRPSLKAVAGITPYSPSSNLANDRVPTMIISGQADTVVTPSYALGLYNSIPATTESVYLEVAGGDHGFMVGRSNPVLIRTMLPFLKTFVDNDARYTQFLCPLVDNSGVVTYRNTCPLLPPPTGTPTPTPTTPGPTTPPPTTPPPGSASEIVGTQSGRCVDVPNSSRTNGTRVQLYDCNRQTNQTWTYNTSTKQLRVYGDMCLDAAGTGNSAAVQIYACHSQTNQQWNINTNGTISGVQSGRCLDAWNTTNGAQIQLYDCHGQTNQQFRLAAR [TEP115] | 60.4 C | 113 µg | 4 | 8 | 7 | 3 | < 3 | < 3 | < 3 | < 3 | – | – | – | – | – | – | – | – | – | – | – | –
10 | ATYERGPAPTAQSIVADGPFSYATVAVPTQSSFGGGTIYYPTDTNQGTFGAVAVIPGFVGSLDNVAWIGSRLASHGFVVFTVATTNPFAFPGDRAAQLQAALTYLTQSSSVRDRVDPNRLAVAGHSMGGGGALEAVRNNPALKAAVALQPWDFGQNFSAIAVPSMIVGAQNDQVATVTSHSEPFYDQIPAGAEKAYLELAGAGHDAGQSVSNATQAGSMLSWLKRYVDEDTRYEQFLCPAPSGPSVAEYRDTCPA [DP045] | 45.7 C | 37 µg | – | < 3 | < 3 | < 3 | – | – | – | – | – | – | – | – | – | – | – | – | – | – | < 3 | –
11 | ADNPFQRGPNPTVASVAATRGTFATAQTSVPAGNGFGGGVIYYPTDTSQGTFGGVAIVPGYSALFANEEAWMGPWLASFGFVVIGIETNSRTDSADARGTQLLAALDYLTQRSSVRDRVDPNRLSVVGHSAGGAGVLSALLRRPSLKAGVGLAPGSPVGNYDLYNDRVPTMFISGQRDTTVTQSYLNGLYSTLPATTPSAWVEITGVDHLFATRANTTEMRVLIPWLKIWVDNDTRYTQFLCPLADSSNISMYRNKCPYVPPGGSSPSPSASPSSSPSPSPSSSPSPSPSPSPSPSPSPSPSPTTSPSPPPPGACSAAYRTVNSWPGGYQGEVTVTAGGSAVNGWTVRWTLGSGQTITQLWNGTLSTSGSAVTVKNASFNGSIPASGSATFGFLATGTPSAPSLSCTSP [ESM007] | 59.2 C | 424 µg | < 3 | < 3 | < 3 | < 3 | < 3 | < 3 | < 3 | < 3 | – | – | – | – | – | – | – | – | – | – | – | –
